Laboratory results taken from US20180195091A1, “THERMOPHILIC MICROORGANISMS FOR CONVERSION OF LIGNOCELLULOSIC BIOMASS TO ETHANOL” (THE TRUSTEES OF DARTMOUTH COLLEGE, priority 2015, published 2018).
Changes are numbered by the printed parent chain. Names may count otherwise. “And” between values parts separate entries of the source, which are not always exact repeats. Equal values may be shown once.

Assays:
[1] = test system: purified AdhE proteins in C. thermocellum, with the exception of LL346; assay: Product inhibition of purified AdhE; assay type: biochemical, Clostridium thermocellum; conditions: concentration not stated
Description: The E. coli crude extracts described above were incubated at 50° C. anaerobically for 20 min to denature E. coli proteins, and the denatured proteins were separated by centrifugation. In strains LL346 and LL1040, the AdhE proteins were heat labile, and lost activity after 50° C. incubation, so these cell extracts were applied directly to the purification column without heating. E. coli cells expressing the control plasmid pNT-CALML3 were subject to the same treatment as above, and its ADH and ALDH activities before and after heat treatment were measured (Table S3). […] For C. thermocellum and T. saccharolyticum AdhE, activity was measured at various stages during purification. […]
All the ALDH activity measurements mentioned in this study refer to the reaction in the acetaldehyde-producing direction. […] Decrease in absorbance at 340 nm caused by NAD(P)H oxidation was monitored by an Agilent 8453 UV-Vis spectrophotometer with Peltier temperature control. Protein concentration was determined using the Bradford method with bovine serum albumin (Thermo Scientific) as the standard. Specific activities are expressed as units per mg of protein. […] The software Visual Enzymics (SoftZymics) was used for non-linear regression to calculate the apparent Km, and kcat values in Table 10. kcat was calculated on the basis of a molecular weight of 97-kDa (26). […]

[2] = target: Clostridium thermocellum LL346 (ethanol-tolerant) AdhE, mutations P704L and H734R (Acetivibrio thermocellus, UniProt A3DCI2, H734R/P704L)
Sequence of Clostridium thermocellum LL346 (ethanol-tolerant) AdhE, mutations P704L and H734R (A3DCI2 1-873 H734R/P704L): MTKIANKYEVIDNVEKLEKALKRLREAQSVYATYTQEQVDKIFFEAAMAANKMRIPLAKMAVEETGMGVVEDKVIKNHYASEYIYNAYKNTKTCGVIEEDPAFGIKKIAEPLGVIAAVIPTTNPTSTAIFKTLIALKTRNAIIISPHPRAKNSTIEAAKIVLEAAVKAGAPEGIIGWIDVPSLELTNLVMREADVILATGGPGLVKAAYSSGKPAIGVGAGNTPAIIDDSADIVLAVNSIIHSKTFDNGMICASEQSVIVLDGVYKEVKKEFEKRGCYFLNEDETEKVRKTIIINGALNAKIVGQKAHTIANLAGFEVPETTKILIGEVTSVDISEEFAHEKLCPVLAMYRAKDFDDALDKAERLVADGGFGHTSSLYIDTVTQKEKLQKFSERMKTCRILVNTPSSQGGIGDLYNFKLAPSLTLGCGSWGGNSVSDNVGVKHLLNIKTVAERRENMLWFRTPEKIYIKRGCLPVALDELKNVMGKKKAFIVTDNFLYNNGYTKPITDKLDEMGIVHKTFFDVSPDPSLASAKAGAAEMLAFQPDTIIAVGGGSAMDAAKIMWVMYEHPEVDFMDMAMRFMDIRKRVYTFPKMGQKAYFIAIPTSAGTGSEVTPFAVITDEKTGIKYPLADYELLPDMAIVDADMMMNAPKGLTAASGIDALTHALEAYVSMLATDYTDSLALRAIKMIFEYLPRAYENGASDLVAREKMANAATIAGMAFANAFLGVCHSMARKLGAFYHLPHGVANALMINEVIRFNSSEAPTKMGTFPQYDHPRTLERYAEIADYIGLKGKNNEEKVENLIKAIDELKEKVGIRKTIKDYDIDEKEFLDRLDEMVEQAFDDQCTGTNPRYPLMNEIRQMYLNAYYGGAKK

[3] = substrate: CC=O; assay: purified protein, by the assay type; conditions: pH 7.0; 55.0 °C
[4] = substrate: NC(=O)C1=CN([C@@H]2O[C@H](COP(=O)(O)OP(=O)(O)OC[C@H]3O[C@@H](n4cnc5c(N)ncnc54)[C@H](O)[C@@H]3O)[C@@H](O)[C@H]2O)C=CC1; assay: purified protein, by the assay type; conditions: pH 7.0; 55.0 °C
[5] = substrate: NC(=O)C1=CN([C@@H]2O[C@H](COP(=O)(O)OP(=O)(O)OC[C@H]3O[C@@H](n4cnc5c(N)ncnc54)[C@H](OP(=O)(O)O)[C@@H]3O)[C@@H](O)[C@H]2O)C=CC1; assay: purified protein, by the assay type; conditions: pH 7.0; 55.0 °C
[6] = substrate: CC(=O)SCCNC(=O)CCNC(=O)[C@H](O)C(C)(C)COP(=O)(O)OP(=O)(O)OC[C@H]1O[C@@H](n2cnc3c(N)ncnc32)[C@H](O)[C@@H]1OP(=O)(O)O; assay: purified protein, by the assay type; conditions: pH 7.0; 55.0 °C
[7] = substrate: NC(=O)C1=CN([C@@H]2O[C@H](COP(=O)(O)OP(=O)(O)OC[C@H]3O[C@@H](n4cnc5c(N)ncnc54)[C@H](O)[C@@H]3O)[C@@H](O)[C@H]2O)C=CC1; assay: purified protein, by the assay type; conditions: pH 7.0; 55.0 °C; remark: listed apart in the source
[8] = substrate: CC=O; assay: ADH reaction (acetaldehyde reduction) of purified AdhE, apparent kinetics; assay type: biochemical, Clostridium thermocellum; conditions: pH 7.0; 55.0 °C
Description: (§1) 500 μL of E. coli culture containing a plasmid with the adhE gene of interest was inoculated into 100 mL sterile LB broth Miller (Acros) with the appropriate antibiotic, and were grown aerobically to OD600 0.5 with shaking at 200 rpm at 37° C. (Eppendorf Innova 42 shaker). The E. coli strain harboring the pNT-CALML3 control plasmid (Invitrogen) was used as a negative control to measure native E. coli ADH or ALDH activity. The cultures were then transferred to sterile serum bottles, and 40 mM IPTG (Isopropyl β-D-1-thiogalactopyranoside) was used to induce protein expression. The serum bottles were then purged with nitrogen to generate an anaerobic protein expression environment, and the cells were cultured for 2 h at 37° C. before harvesting.
(§2) The E. coli crude extracts described above were incubated at 50° C. anaerobically for 20 min to denature E. coli proteins, and the denatured proteins were separated by centrifugation. In strains LL346 and LL1040, the AdhE proteins were heat labile, and lost activity after 50° C. incubation, so these cell extracts were applied directly to the purification column without heating. E. coli cells expressing the control plasmid pNT-CALML3 were subject to the same treatment as above, and its ADH and ALDH activities before and after heat treatment were measured (Table S3). The cell extracts containing His-tagged AdhE were then subjected to anaerobic affinity column purification (Ni-NTA spin columns, Qiagen). The purification was carried out according to the Qiagen protocol “Ni-NTA Agarose Purification of 6×His-tagged Proteins from E. coli under Native Conditions” with some modifications as described below. The column was first equilibrated with Equilibrium Buffer (50 mM NaH2PO4, 300 mM NaCl, 5 mM imidazole, 5 μM FeSO4, pH 7), then cell extracts were applied to the column and the column was washed twice with Wash Buffer (50 mM NaH2PO4, 300 mM NaCl, 50 mM imidazole, 20% ethanol, 5 μM FeSO4, pH 7). The His-tagged AdhE was eluted by addition of 200 μL Elution Buffer (50 mM NaH2PO4, 300 mM NaCl, 500 mM imidazole, 5 μM FeSO4, pH 7), this is “Eluent 1” in Table S3 and S4. Repeating this elution step sequentially generated more purified “Eluent 2” and “Eluent 3”. For C. thermocellum and T. saccharolyticum AdhE, activity was measured at various stages during purification. […] The degree of protein purity was estimated by gel densitometry using the image analysis software ImageJ, where the density of each visible gel band from Eluent 3 was plotted as peaks. The area of each peak was then integrated to generate percentages, which is an indicator of AdhE purity E. coli cell extracts with native AdhE expressed (i.e. without the His-tag) were used directly without purification.
(§3) All the ALDH activity measurements mentioned in this study refer to the reaction in the acetaldehyde-producing direction. All the ADH activity measurements mentioned in this study refer to the reaction in the ethanol-producing direction. For ADH (acetaldehyde reduction) reactions, the anaerobic reaction mixture contained 0.24 mM NADH or NADPH, 17.6 mM acetaldehyde, 1 mM DTT, 100 mM Tris-HCl, 5 μM FeSO4 and cell extract or purified protein solution (protein amount indicated separately for each assay). The final volume was 850 μL, the assay temperature was 55° C. and the assay was started by the addition of acetaldehyde. For ALDH (acetyl-CoA reduction) reactions, the acetaldehyde in the above anaerobic reaction mixture was substituted with 0.35 mM acetyl-CoA. Decrease in absorbance at 340 nm caused by NAD(P)H oxidation was monitored by an Agilent 8453 UV-Vis spectrophotometer with Peltier temperature control. Protein concentration was determined using the Bradford method with bovine serum albumin (Thermo Scientific) as the standard. Specific activities are expressed as units per mg of protein. One unit of activity=formation of 1 μmol of product per min Specific activities in Table 8 and Table 9 are reported for at least two biological replicates. […]

[9] = substrate: NC(=O)C1=CN([C@@H]2O[C@H](COP(=O)(O)OP(=O)(O)OC[C@H]3O[C@@H](n4cnc5c(N)ncnc54)[C@H](O)[C@@H]3O)[C@@H](O)[C@H]2O)C=CC1; assay: as above; assay type: biochemical, Clostridium thermocellum; conditions: pH 7.0; 55.0 °C
Description: as §1, §2, §3

[10] = substrate: CC(=O)SCCNC(=O)CCNC(=O)[C@H](O)C(C)(C)COP(=O)(O)OP(=O)(O)OC[C@H]1O[C@@H](n2cnc3c(N)ncnc32)[C@H](O)[C@@H]1OP(=O)(O)O; assay: ALDH reaction (acetyl-CoA reduction) of purified AdhE, apparent kinetics; assay type: biochemical, Clostridium thermocellum; conditions: pH 7.0; 55.0 °C
Description: as §1, §2, §3

[11] = substrate: NC(=O)C1=CN([C@@H]2O[C@H](COP(=O)(O)OP(=O)(O)OC[C@H]3O[C@@H](n4cnc5c(N)ncnc54)[C@H](O)[C@@H]3O)[C@@H](O)[C@H]2O)C=CC1; assay: as above; assay type: biochemical, Clostridium thermocellum; conditions: pH 7.0; 55.0 °C
Description: as §1, §2, §3

[12] = in the presence of 2.35 mM NAD^+

Molecule: NAD(P)^+
- activity inhibited by NAD(P)^+ [1]: at least 70%

Molecule: NC(=O)c1ccc[n+]([C@@H]2O[C@H](COP(=O)([O-])OP(=O)(O)OC[C@H]3O[C@@H](n4cnc5c(N)ncnc54)[C@H](O)[C@@H]3O)[C@@H](O)[C@H]2O)c1 [NAD^+]
- ADH activity retained [2, 12]: 98%
- ALDH activity retained [2, 12]: 92%
- inhibition by NAD^+ ([2]; purified AdhE, concentration not stated): less than 10%

Molecule: CCO [ethanol]
- increase in ADH activity ([2]; purified adhe): 2 fold

B1: (Acetivibrio thermocellus; D494G) (protein)
chain: MTKIANKYEVIDNVEKLEKALKRLREAQSVYATYTQEQVDKIFFEAAMAANKMRIPLAKMAVEETGMGVVEDKVIKNHYASEYIYNAYKNTKTCGVIEEDPAFGIKKIAEPLGVIAAVIPTTNPTSTAIFKTLIALKTRNAIIISPHPRAKNSTIEAAKIVLEAAVKAGAPEGIIGWIDVPSLELTNLVMREADVILATGGPGLVKAAYSSGKPAIGVGAGNTPAIIDDSADIVLAVNSIIHSKTFDNGMICASEQSVIVLDGVYKEVKKEFEKRGCYFLNEDETEKVRKTIIINGALNAKIVGQKAHTIANLAGFEVPETTKILIGEVTSVDISEEFAHEKLCPVLAMYRAKDFDDALDKAERLVADGGFGHTSSLYIDTVTQKEKLQKFSERMKTCRILVNTPSSQGGIGDLYNFKLAPSLTLGCGSWGGNSVSDNVGVKHLLNIKTVAERRENMLWFRTPEKIYIKRGCLPVALDELKNVMGKKKAFIVTGNFLYNNGYTKPITDKLDEMGIVHKTFFDVSPDPSLASAKAGAAEMLAFQPDTIIAVGGGSAMDAAKIMWVMYEHPEVDFMDMAMRFMDIRKRVYTFPKMGQKAYFIAIPTSAGTGSEVTPFAVITDEKTGIKYPLADYELLPDMAIVDADMMMNAPKGLTAASGIDALTHALEAYVSMLATDYTDSLALRAIKMIFEYLPRAYENGASDLVAREKMANAATIAGMAFANAFLGVCHSMARKLGAFYHLPHGVANALMINEVIRFNSSEAPTKMGTFPQYDHPRTLERYAEIADYIGLKGKNNEEKVENLIKAIDELKEKVGIRKTIKDYDIDEKEFLDRLDEMVEQAFDDQCTGTNPRYPLMNEIRQMYLNAYYGGAKK
- Km [3]: 2100 ± 200 µM and 1800 ± 200 µM
- kcat [3]: 318 s⁻¹ and 246 s⁻¹
- kcat/Km [3]: 150000 M⁻¹ s⁻¹ and 140000 M⁻¹ s⁻¹
- Km [4]: 400 ± 50 µM
- kcat [4]: 319 ± 21 s⁻¹
- kcat/Km [4]: 890000 M⁻¹ s⁻¹
- Km [5]: 80 ± 20 µM
- kcat [5]: 295 ± 18 s⁻¹
- kcat/Km [5]: 3.8e+06 M⁻¹ s⁻¹
- Km [6]: 4 ± 0.5 µM
- kcat [6]: 202 ± 4 s⁻¹
- kcat/Km [6]: 5.8e+07 M⁻¹ s⁻¹
- Km [7]: 20 ± 2 µM
- kcat [7]: 64 ± 2 s⁻¹
- kcat/Km [7]: 3.4e+06 M⁻¹ s⁻¹

B2: (Acetivibrio thermocellus) (protein)
chain: B1 chain with G494D
- Km [8]: 1300 ± 200 µM
- kcat [8]: 238 ± 8 s⁻¹
- kcat/Km [8]: 180000 M⁻¹ s⁻¹
- Km [9]: 100 ± 20 µM
- kcat [9]: 302 ± 13 s⁻¹
- kcat/Km [9]: 2.3e+06 M⁻¹ s⁻¹
- Km [10]: 8 ± 2 µM
- kcat [10]: 297 ± 11 s⁻¹
- kcat/Km [10]: 3.5e+07 M⁻¹ s⁻¹
- Km [11]: 60 ± 4 µM
- kcat [11]: 152 ± 4 s⁻¹
- kcat/Km [11]: 2.8e+06 M⁻¹ s⁻¹
